These results are taken from paper PMC2926940 (Nature structural & molecular biology, 2010).

Where a chain is given by its changes, count along the chain named. Names and notes keep the numbering of the source.

Test [1] deals with c-Jun phosphopeptide (Homo sapiens) (UniProt P05412). The conditions noted are these: cited from earlier work.
The target of test [2] is Abl SH2 domain, His-tagged (immobilised for SPR) (human) (UniProt P00519). Description: SPR. Background: SPR reads the build-up and loss of mass on a sensor chip optically.
In test [3] the target is Abl SH2 domain spotted on the SH2 microarray (human). Description: peptide or protein array.
Test [4] addresses Abl2 (Arg) SH2 domain spotted on the SH2 microarray (UniProt P42684). The test can be described thus: peptide or protein array.
Test [5] has as its target Blk SH2 domain spotted on the SH2 microarray (UniProt P51451). The test can be described thus: peptide or protein array.
Test [6] deals with Grb7 SH2 spotted on the SH2 microarray (UniProt Q14451). Description: peptide or protein array.
Test [7] deals with tandem SH2 domains of Syk spotted on the SH2 microarray. Description: peptide or protein array.
In test [8] the target is T1, Abl SH2 domain, His-tagged (immobilised for SPR) (human, UniProt P00519-2).
T1 sequence: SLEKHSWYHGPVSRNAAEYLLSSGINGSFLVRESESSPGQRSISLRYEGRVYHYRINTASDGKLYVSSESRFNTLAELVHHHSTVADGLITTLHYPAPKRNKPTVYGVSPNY
Description: SPR.

Grb7 SH2 spotted on the SH2 microarray, sequence (Q14451 431-527): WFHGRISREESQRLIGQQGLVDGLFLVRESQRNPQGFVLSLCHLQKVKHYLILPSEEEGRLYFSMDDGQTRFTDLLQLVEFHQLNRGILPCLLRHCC
Blk SH2 domain spotted on the SH2 microarray, sequence (P51451 124-220): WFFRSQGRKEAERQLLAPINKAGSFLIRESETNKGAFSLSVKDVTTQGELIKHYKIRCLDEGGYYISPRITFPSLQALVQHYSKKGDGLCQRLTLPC
Abl2 (Arg) SH2 domain spotted on the SH2 microarray, sequence (P42684 173-263): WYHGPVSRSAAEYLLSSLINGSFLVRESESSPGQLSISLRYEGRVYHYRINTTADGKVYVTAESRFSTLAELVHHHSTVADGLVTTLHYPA
c-Jun phosphopeptide (Homo sapiens), sequence (P05412 whole entry, the tested form may be a part): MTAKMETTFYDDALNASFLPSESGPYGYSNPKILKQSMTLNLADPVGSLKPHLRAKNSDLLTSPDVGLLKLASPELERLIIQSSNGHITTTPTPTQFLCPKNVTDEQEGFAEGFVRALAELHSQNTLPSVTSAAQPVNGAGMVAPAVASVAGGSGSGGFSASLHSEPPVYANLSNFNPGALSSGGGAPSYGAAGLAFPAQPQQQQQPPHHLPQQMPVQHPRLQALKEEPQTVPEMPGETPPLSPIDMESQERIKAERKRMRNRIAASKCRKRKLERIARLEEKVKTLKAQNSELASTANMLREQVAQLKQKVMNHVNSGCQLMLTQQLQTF

For orientation: Kd means the equilibrium constant for the complex coming apart. In the case of Abl SH2 (from UniProt P00519), the Kd in test [1] is 7000 nM. For the molecule HA4 E52A (designed binder), in test [2], the ΔΔG of binding against HA4 is 2.4 kcal/mol. Take HA4 R38A (designed binder): the ΔΔG of binding against HA4 in test [2] worked out at 2.2 kcal/mol.

With HA4 Y35A (designed binder), the ΔΔG of binding against HA4 in test [2] came to 0.8 kcal/mol. With monobody HA4 (designed binder), the Kd in test [2] was found to be 7 nM. Regarding “monobody HA4 labelled with DyLight 800 (designed binder)”, the Kd is 22 nM in test [3]; 18 nM in test [4]; 109 nM in test [5]; 169 nM in test [6]; 28 nM in test [7].

B1: HA4 Y36A (designed binder)
chain: GSSVSSVPTKLEVVAATPTSLLISWDAPMSSSSVYAYRITYGETGGNSPVQEFTVPYSSSTATISGLSPGVDYTITVYAWGEDSAGYMFMYSPISINYRTC
For the molecule B1, the “ΔΔG of binding against HA4” value in test [8] was ≥ 3.8 kcal/mol.

B2: HA4_(Y87A) (designed binder)
chain: B1 chain with A36Y, Y87A
With B2, in test [8], the “ΔΔG of binding against HA4” value was ≥ 3.8 kcal/mol.

B3: HA4 M88A (designed binder)
chain: B1 chain with A36Y, M88A
Take B3: in test [8], the “ΔΔG of binding against HA4” value was ≥ 3.8 kcal/mol.

B4: HA4 W80A (designed binder)
chain: B1 chain with A36Y, W80A
As for B4, the “ΔΔG of binding against HA4” value in test [8] was ≥ 3.8 kcal/mol.
